The chains are these.
B1: CH 11# (antibody, V domains shown)
VH: QVKLQQSGPDLVKPGASVKISCKASGYSFTGYYMHWVKQSHGKSLEWIGRVNPNNGGTTYKQKFKGKVILTVDKSSSTAYMELRSLTSEDSAVYYCAREGEYFDYYTMDYWGQGTTVTVSS
VL: DIELTQSPASLAVSLGQRATISCRASESVEYYGTSLMQWYQQKPGQPPKLLIYAASNVESGVPARFSGSVSGTDFSLNIHPVEEDDIAVYFCQQSRKVPITFGSGTKLELK
B2: 3E6 (antibody, V domains shown)
VH: DVQLQEAGPGLVKPSQSLSLNCTVTGYSITSGFAWNWIRQFPGNKLEWMGYISHSGSTSYNPSLKSRISITRDTSKNQFFLQLNSVTTEDTATYYCARGYRSPWFAYWGQGTLVTVSA
VL: DIIMTQSQKFMSTSVGDRVSVTCKASQNVGANVAWYQQKPRQSPKALIYSASYRYSGVPDRFTGSGSGTDFTLTISNVQSEDLAEYFCQQYNSYPTFGGGTKLEIK
B3: 19D11 (antibody, V domains shown)
VH: B2 VH with A7S, G10D, N21T, F33Y, A34S, N36H, S53Y, H54F, S59N, P103A
VL: DIVMTQSQKFMSTSVGDRVSVTCKASQNVGTNVAWYQQKPGQSPKTLIYSASYRYSGVPDRFTGSGSGTDFTLTISNVQSEDLAEYFCQQYNSYPLVTFGTGTKLELK
B4: 4H2 (antibody, V domains shown)
VH: EVQLQESGPSLVKPSQTLSLTCSVTGDSITSGYWNWIRKFPGNKLEYMGYINYSGSTYYNPSLKSRISITRDTSKNQYYLQLNSVTTEDTATYYCATGNHFDYWGQGTTLTVSS
VL: DIQMTQSPSSLSASLGGKVTITCKASQDINKYIAWYQHKPGKGPRLLIHYTSTLQPGIPSRFSGSGSGTDYSFSISNLEPEDFATYYCLQYDNLLFTFGSGTKLEIK
B5: 16H1 (antibody, V domains shown)
VH: QVQLQQSGPQLVRPGSSVQISCKTSGYSFTSYLMHWVRQRPGQGLEWIGSIDPSDSEISLNQKFMDKATLTVDKSSSTANMQFSSPTSEDSAVYFCARDFGYVAWFVYWGQGTLVTVSA
VL: DIVMTQSHKFMSTSIEDRVSITCKASQDVSAAVAWYQQKPGQTPKLLIYSTFYRYIGVPDRFTGSGSGTDFTFTITSVQAEDLAVYFCQQHYSVPWTFGGGTKLEIK
notes: also called I6H1
B6: CH 10# (antibody, V domains shown)
VH: QVQLQQSGAELMKPGASVKISCKAIGYTFSSYWIEWVKQRPGHGLEWIGEISPGRGSTNYNEKFKGKATFTADTSSNTAYMQLSSLTSEDSAVYYCARDYYGSIFDVWGQGTTVTVSS
VL: DIELTQSPALMAASPGEKVTITCSASSSVSSSYLHWYQQKPGSSPKLWIYSTSNLASGVPARFSGSGSGTSYSLTISSMEAEDAATYYCQQWSSYPLTFGAGTKLEIK
B7: 3E6 VH2/3E6 VL0 (antibody, V domains shown)
VH: QVQLQESGPGLVKPSQTLSLTCTVSGYSITSGFAWNWIRQPPGKGLEWMGYISHSGSTSYNPSLKSRVTISVDTSKNQFSLKLSSVTAADTAVYYCARGYRSPWFAYWGQGTTVTVSS
VL: DIQMTQSPSSLSASVGDRVTITCKASQNVGANVAWYQQKPGKAPKSLIYSASYRYSGVPSRFSGSGSGTDFTLTISSLQPEDFATYYCQQYNSYPTFGGGTKVEIK
notes: Humanized 3E6; VH and VL cloned into vectors with constant regions (CH1-FC/CL) and expressed in 293F cells; also called humanized 3E6 VH2/VL0
B8: 3E6 VH3/3E6 VL0 (antibody, V domains shown)
VH: B7 VH with K44N, M49I
VL: B7 VL
notes: Humanized 3E6; VH and VL cloned into vectors with constant regions (CH1-FC/CL) and expressed in 293F cells; also called humanized 3E6 VH3/VL0
B9: 3E6 VH7/3E6 VL0 (antibody, V domains shown)
VH: B7 VH with V68I, V72R
VL: B7 VL
notes: Humanized 3E6; VH and VL cloned into vectors with constant regions (CH1-FC/CL) and expressed in 293F cells; also called humanized 3E6 VH7/VL0
B10: 3E6 VH5/3E6 VL0 (antibody, V domains shown)
VH: B7 VH with K44N, M49I, V68I, V72R
VL: B7 VL
notes: Humanized 3E6; VH and VL cloned into vectors with constant regions (CH1-FC/CL) and expressed in 293F cells; also called humanized 3E6 VH5/VL0
B11: 3E6 VH6/3E6 VL0 (antibody, V domains shown)
VH: B7 VH with V68I
VL: B7 VL
notes: Humanized 3E6; VH and VL cloned into vectors with constant regions (CH1-FC/CL) and expressed in 293F cells; also called humanized 3E6 VH6/VL0

Here are results for eleven molecules from US20230365685A1 (SUZHOU NEOLOGICS BIOSCIENCE, published 2023).

Changes are numbered by the printed parent chain.
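Throughout, for inhibit percentage: plate-coated antibody at 2 µg/mL.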

The first assay addresses T1, biotinylated human TIM-3 (human, UniProt Q8TDQ0 22-202, limits assumed, biotinylated (sites not given)). The experiment in a line: competition ELISA: antibody coated, biotinylated human TIM-3 preincubated with competitor 3E6.
In turn, B1 showed an inhibit percentage of 97.8%.

The molecule B2 returned an inhibit percentage of 100%.

The molecule B3 returned an inhibit percentage of 100%.

The molecule B4 came in with an inhibit percentage of 99.9%.

For the molecule B5, the inhibit percentage was 60%.

In turn, B6 showed an inhibit percentage of 98.2%.

The target in a further assay is T1, biotinylated human TIM-3. The experiment in a line: competition ELISA: antibody coated, biotinylated human TIM-3 preincubated with competitor 4H2.
Description: (§1) Antibodies were diluted with PBS to 2 μg/mL. 50 μl antibody solution was added to each well of the 96-well plate, which was incubated at 4° C. overnight. The plate was then washed with wash buffer (0.05% Tween in PBS) three times and blocked with 5% skim milk in PBS at 37° C. for two hours. The biotinylated human TIM-3 and antibodies were preincubated at room temperature for half an hour and then added to the plate. The plate was then incubated at room temperature for 1 hour and washed three times with wash buffer. 50 μl streptavidin HRP (1:1000, BD) was then added to each well at room temperature and incubated for about 1 hour. 50 μl of TMB substrate was added to each well, and the reaction was then terminated with 50 μl HCL after 1-5 minutes. Absorbance was read at 450 nm and IC50 value was analyzed.
On to B1, for which the inhibit percentage came to 99.6%.

In turn, B2 yielded an inhibit percentage of 99.6%.

B3 returned an inhibit percentage of 100%.

With B4, the inhibit percentage came to 100%.

For B5, the inhibit percentage amounted to 64.7%.

As for B6, the inhibit percentage amounted to 98.6%.

For another assay, the target named is T1, biotinylated human TIM-3. The experiment in a line: competition ELISA: antibody coated, biotinylated human TIM-3 preincubated with competitor 16H1.
Description: as §1
Turning to B1, the inhibit percentage amounted to 0%.

Molecule B2 gave an inhibit percentage of 26.3%.

The molecule B3 came in with an inhibit percentage of 0%.

Take B4: the inhibit percentage amounted to 28.9%.

In turn, B5 returned an inhibit percentage of 100%.

B6 returned an inhibit percentage of 45.8%.

The next assay has as its target T2, human TIM-3 (human, UniProt Q8TDQ0 22-202, limits assumed).
T2 construct: also called HAVCR2; target antigen
The experiment in a line: BLI (Octet-96); antigen not named in the paragraph.
B7 had a Kd of 2.21 nM.

In turn, B8 had a Kd of 1.98 nM.

In turn, B9 came in with a dissociation constant Kd of 1.96 nM.

In turn, B10 gave a Kd of 1.78 nM.

In turn, B11 gave a dissociation constant (Kd) of 1.46 nM.

A further assay has as its target T2, human TIM-3. As to the kind of experiment: blocking assay, flow cytometry: antibody preincubated with recombinant human TIM-3-Fc, then binding of TIM-3-Fc to apoptotic 293T cells; blocked ligand: phosphatidylserine.
Description: After the cells were washed once, PE-labelled goat anti-mouse IgG antibody was added and incubated for 1 hour at 4° C. Finally, samples were washed once with 1× Annexin-V buffer and fluorescence was measured with a flow cytometer (Canto II, BD, USA).
For B2, the “IC50 (read off the curve)” value is approximately 4 µg/mL.

As to B3, the “IC50 (read off the curve)” value is approximately 7 µg/mL.

On to B4, for which the “IC50 (read off the curve)” value is approximately 4 µg/mL.

As for B5, the “IC50 (read off the curve)” value is approximately 2 µg/mL.

On to B6, for which the “IC50 (read off the curve)” value is approximately 4 µg/mL.

A further assay has as its target T3, human TIM-3 recombinant protein (TIM-3-his) (human, UniProt Q8TDQ0 22-202).
T3 construct: also called TIM-3 protein; not shown: His tag
As to the kind of experiment: biosensor (HFC sensor, Probe Life): antibody captured, TIM-3-his in solution, 1:1 fit.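 Note: antigen applied as a twofold dilution series, association and dissociation phases recorded, KD obtained as koff divided by kon.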
Regarding B1, the Kd amounted to 19.1 nM, the koff stood at 0.000705 s⁻¹ and the kon came to 36900 M⁻¹ s⁻¹.

B2: the Kd came to 0.23 nM, the koff worked out at 0.000284 s⁻¹ and the association rate constant (kon) was found to be 1.24e+06 M⁻¹ s⁻¹.

Regarding B3, the Kd was found to be 0.604 nM, the koff is 0.00037 s⁻¹ and the association rate constant (kon) is 613000 M⁻¹ s⁻¹.

With B4, the dissociation constant (Kd) is 0.424 nM, the dissociation rate constant (koff) was found to be 0.000558 s⁻¹ and the on-rate constant (kon) stood at 1.32e+06 M⁻¹ s⁻¹.

As to B5, the Kd was found to be 0.168 nM, the dissociation rate constant (koff) came to 0.000218 s⁻¹ and the kon came out at 1.3e+06 M⁻¹ s⁻¹.

In the case of B6, the Kd is 38.2 nM, the koff stood at 0.00148 s⁻¹ and the on-rate constant (kon) was 38600 M⁻¹ s⁻¹.

The target in a further assay is T1, biotinylated human TIM-3. As to the kind of experiment: competition ELISA: antibody coated, biotinylated human TIM-3 preincubated with competitor TSR022.
Description: as §1
In the case of B1, the inhibit percentage was found to be 0%.

The molecule B2 showed an inhibit percentage of 16.4%.

B3 returned an inhibit percentage of 10.3%.

On to B4, for which the inhibit percentage came out at 16.7%.

Turning to B5, the inhibit percentage was 4.02%.

Molecule B6 came in with an inhibit percentage of 48.5%.

In a further assay the target is T1, biotinylated human TIM-3. As to the kind of experiment: competition ELISA: antibody coated, biotinylated human TIM-3 preincubated with competitor CH 10#.
Description: as §1
The molecule B1 yielded an inhibit percentage of 98.2%.

As to B2, the inhibit percentage was 50.1%.

As for B3, the inhibit percentage was found to be 100%.

Consider B4, for which the inhibit percentage turned out to be 56.8%.

In the case of B5, the inhibit percentage amounted to 15.1%.

As for B6, the inhibit percentage was 100%.

The next assay addresses T1, biotinylated human TIM-3. As to the kind of experiment: competition ELISA: antibody coated, biotinylated human TIM-3 preincubated with competitor 19D11.
Description: as §1
Consider B1, for which the inhibit percentage was found to be 99.4%.

As to B2, the inhibit percentage stood at 38.7%.

Consider B3, for which the inhibit percentage turned out to be 100%.

Molecule B4 had an inhibit percentage of 39%.

Regarding B5, the inhibit percentage was found to be 0.06%.

As for B6, the inhibit percentage stood at 98.1%.

The target in the next assay is T1, biotinylated human TIM-3. The experiment in a line: competition ELISA: antibody coated, biotinylated human TIM-3 preincubated with competitor MBG453.
Description: as §1
As to B1, the inhibit percentage worked out at 29.4%.

The molecule B2 displayed an inhibit percentage of 24.9%.

B3 registered an inhibit percentage of 0%.

In turn, B4 displayed an inhibit percentage of 28%.

Take B5: the inhibit percentage came to 81.7%.

The molecule B6 displayed an inhibit percentage of 35.4%.

A further assay has as its target T4, mouse TIM-3 (mouse, UniProt Q8VIM0 20-281).
T4 construct: whole, on cells
The experiment in a line: flow cytometry on cells stably expressing mouse TIM-3, PE-labelled secondary antibody; concentration not shown.
In the case of B1, the binding result is listed as “no binding”.

Consider B2, for which the binding result is recorded as “no binding”.

Consider B3, for which the binding result is on record as “no binding”.

In the case of B4, the binding result is recorded as “no binding”.

With B5, the binding result was “no binding”.

As for B6, the binding result is on record as “no binding”.

For a further assay, the target named is T5, cynomolgus TIM-3 (cynomolgus, UniProt A0A2K5U3G7 22-294).
T5 construct: whole, on cells
T5 sequence: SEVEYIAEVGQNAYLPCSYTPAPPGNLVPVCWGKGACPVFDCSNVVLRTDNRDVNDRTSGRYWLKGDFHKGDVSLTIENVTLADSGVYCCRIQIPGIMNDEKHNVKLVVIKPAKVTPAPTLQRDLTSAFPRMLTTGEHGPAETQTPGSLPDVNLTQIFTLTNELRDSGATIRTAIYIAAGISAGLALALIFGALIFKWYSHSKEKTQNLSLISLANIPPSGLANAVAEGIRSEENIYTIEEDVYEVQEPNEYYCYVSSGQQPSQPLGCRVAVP
As to the kind of experiment: flow cytometry on 293T cells stably expressing cynomolgus TIM-3, serially diluted antibody, PE-labelled secondary antibody [upper panel].
Description: Briefly, serially diluted anti-TIM-3 antibodies were incubated with cell lines stably expressing mouse TIM-3 or cynomolgus TIM-3 (10⁵ cells/well). Then, PE-labelled mouse anti-human IgG antibody (Biolegend) was used as detection antibody. A flow cytometer (Canto II, BD, USA) was used to measure fluorescence.
Turning to B2, the 50% effective concentration (EC50 (read off the curve)) was approximately 0.1 µg/mL.

With B4, the concentration giving a half-maximal response (EC50 (read off the curve)) is approximately 0.07 µg/mL.

In the case of B5, the “EC50 (read off the curve)” value was approximately 0.04 µg/mL.

The next assay concerns the target T1, biotinylated human TIM-3. The experiment in a line: competition ELISA: antibody coated, biotinylated human TIM-3 preincubated with competitor CH 11#.
Description: as §1
In the case of B1, the inhibit percentage stood at 100%.

Turning to B2, the inhibit percentage stood at 67.1%.

For B3, the inhibit percentage was determined as 100%.

B4 registered an inhibit percentage of 62.5%.

Regarding B5, the inhibit percentage worked out at 8.26%.

The molecule B6 returned an inhibit percentage of 99.7%.
